US10294487B2, “Methods and compositions involving ALS variants with native substrate preference” (E I DU PONT DE NEMOURS AND COMPANY, priority 2012, dated 2019)

Legend:
G. max ALS1 protein [1] = experiment: Substrate specificity ratio (Rf), pyruvate versus 2-ketobutyrate, LC-MS of reduced products; assay type: biochemical, Glycine max; conditions: ratio of [pyruvate] to [2-ketobutyrate] giving equal rates of acetolactate and acetohydroxybutyrate formation; 25 mM pyruvate
Outline: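 Pyruvate was held at 25 mM while 2-ketobutyrate was varied. Reactions were quenched with sodium borohydride, and the reduced acetolactate and acetohydroxybutyrate were separated on C18 with a methanol gradient and quantified by MS integration. Rf is the [pyruvate]/[2-ketobutyrate] ratio that gives equal formation rates of both products.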

G. max ALS1 protein [2] = experiment: Colorimetric ALS kinetic assay (Km, kcat) with pyruvate as substrate; assay type: biochemical, Glycine max
Outline: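 Recombinant soybean ALS variants, mature N-terminus from S48, His-MBP tag cleaved off; 0.8 ug enzyme per well in 25 mM potassium phosphate, 15 mM MgCl2, 0.7 mM TPP, 28 uM FAD, 0.2 mg/ml BSA, 0-100 mM pyruvate. Km and Vmax from hyperbolic fit; kcat from Vmax and protein concentration.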

Row | Molecule | Substrate specificity ratio (Rf) (G. max ALS1 protein [1]) | Km (G. max ALS1 protein [2]) [mM] | kcat (G. max ALS1 protein [2]) [s⁻¹]
1 | GM-ALS_P178S_A186V: Glycine Max ALS1 with P→S at position 178 and A→V at position 186 (protein, ALS1 variant P178S A186V) MAATASRTTRFSSSSSHPTFPKRITRSTLPLSHQTLTKPNHALKIKCSISKPPTAAPFTKEAPTTEPFVSRFASGEPRKGADILVEALERQGVTTVFAYPGGASMEIHQALTRSAAIRNVLPRHEQGGVFAAEGYARSSGLPGVCIATSGPGATNLVSGLADALMDSVPVVAITGQVSRRMIGTDVFQETPIVEVSRSITKHNYLILDVDDIPRVVAEAFFVATSGRPGPVLIDIPKDVQQQLAVPNWDEPVNLPGYLARLPRPPAEAQLEHIVRLIMEAQKPVLYVGGGSLNSSAELRRFVELTGIPVASTLMGLGTFPIGDEYSLQMLGMHGTVYANYAVDNSDLLLAFGVRFDDRVTGKLEAFASRAKIVHIDIDSAEIGKNKQAHVSVCADLKLALKGINMILEEKGVEGKFDLGGWREEINVQKHKFPLGYKTFQDAISPQHAIEVLDELTNGDAIVSTGVGQHQMWAAQFYKYKRPRQWLTSGGLGAMGFGLPAAIGAAVANPGAVVVDIDGDGSFIMNVQELATIRVENLPVKILLLNNQHLGMVVQWEDRFYKSNRAHTYLGDPSSESEIFPNMLKFADACGIPAARVTKKEELRAAIQRMLDTPGPYLLDVIVPHQEHVLPMIPSNGSFKDVITEGDGRTRY | 29.0 | 21 | 0.45
2 | GM-ALS_K237Q: Glycine Max ALS1 variant with a K→Q mutation at position 237 (protein, ALS1 variant K237Q) MAATASRTTRFSSSSSHPTFPKRITRSTLPLSHQTLTKPNHALKIKCSISKPPTAAPFTKEAPTTEPFVSRFASGEPRKGADILVEALERQGVTTVFAYPGGASMEIHQALTRSAAIRNVLPRHEQGGVFAAEGYARSSGLPGVCIATSGPGATNLVSGLADALMDSVPVVAITGQVPRRMIGTDAFQETPIVEVSRSITKHNYLILDVDDIPRVVAEAFFVATSGRPGPVLIDIPQDVQQQLAVPNWDEPVNLPGYLARLPRPPAEAQLEHIVRLIMEAQKPVLYVGGGSLNSSAELRRFVELTGIPVASTLMGLGTFPIGDEYSLQMLGMHGTVYANYAVDNSDLLLAFGVRFDDRVTGKLEAFASRAKIVHIDIDSAEIGKNKQAHVSVCADLKLALKGINMILEEKGVEGKFDLGGWREEINVQKHKFPLGYKTFQDAISPQHAIEVLDELTNGDAIVSTGVGQHQMWAAQFYKYKRPRQWLTSGGLGAMGFGLPAAIGAAVANPGAVVVDIDGDGSFIMNVQELATIRVENLPVKILLLNNQHLGMVVQWEDRFYKSNRAHTYLGDPSSESEIFPNMLKFADACGIPAARVTKKEELRAAIQRMLDTPGPYLLDVIVPHQEHVLPMIPSNGSFKDVITEGDGRTRY | 100.0 | 20 | 1.35
3 | GM-ALS_A186V: Glycine Max ALS1 variant with a A→V mutation at position 186 (protein, ALS1 variant A186V) MAATASRTTRFSSSSSHPTFPKRITRSTLPLSHQTLTKPNHALKIKCSISKPPTAAPFTKEAPTTEPFVSRFASGEPRKGADILVEALERQGVTTVFAYPGGASMEIHQALTRSAAIRNVLPRHEQGGVFAAEGYARSSGLPGVCIATSGPGATNLVSGLADALMDSVPVVAITGQVPRRMIGTDVFQETPIVEVSRSITKHNYLILDVDDIPRVVAEAFFVATSGRPGPVLIDIPKDVQQQLAVPNWDEPVNLPGYLARLPRPPAEAQLEHIVRLIMEAQKPVLYVGGGSLNSSAELRRFVELTGIPVASTLMGLGTFPIGDEYSLQMLGMHGTVYANYAVDNSDLLLAFGVRFDDRVTGKLEAFASRAKIVHIDIDSAEIGKNKQAHVSVCADLKLALKGINMILEEKGVEGKFDLGGWREEINVQKHKFPLGYKTFQDAISPQHAIEVLDELTNGDAIVSTGVGQHQMWAAQFYKYKRPRQWLTSGGLGAMGFGLPAAIGAAVANPGAVVVDIDGDGSFIMNVQELATIRVENLPVKILLLNNQHLGMVVQWEDRFYKSNRAHTYLGDPSSESEIFPNMLKFADACGIPAARVTKKEELRAAIQRMLDTPGPYLLDVIVPHQEHVLPMIPSNGSFKDVITEGDGRTRY | 40.3 | 14 | 0.467
4 | GM-ALS_K237F: Glycine Max ALS1 variant with a K→F mutation at position 237 (protein, ALS1 variant K237F) MAATASRTTRFSSSSSHPTFPKRITRSTLPLSHQTLTKPNHALKIKCSISKPPTAAPFTKEAPTTEPFVSRFASGEPRKGADILVEALERQGVTTVFAYPGGASMEIHQALTRSAAIRNVLPRHEQGGVFAAEGYARSSGLPGVCIATSGPGATNLVSGLADALMDSVPVVAITGQVPRRMIGTDAFQETPIVEVSRSITKHNYLILDVDDIPRVVAEAFFVATSGRPGPVLIDIPFDVQQQLAVPNWDEPVNLPGYLARLPRPPAEAQLEHIVRLIMEAQKPVLYVGGGSLNSSAELRRFVELTGIPVASTLMGLGTFPIGDEYSLQMLGMHGTVYANYAVDNSDLLLAFGVRFDDRVTGKLEAFASRAKIVHIDIDSAEIGKNKQAHVSVCADLKLALKGINMILEEKGVEGKFDLGGWREEINVQKHKFPLGYKTFQDAISPQHAIEVLDELTNGDAIVSTGVGQHQMWAAQFYKYKRPRQWLTSGGLGAMGFGLPAAIGAAVANPGAVVVDIDGDGSFIMNVQELATIRVENLPVKILLLNNQHLGMVVQWEDRFYKSNRAHTYLGDPSSESEIFPNMLKFADACGIPAARVTKKEELRAAIQRMLDTPGPYLLDVIVPHQEHVLPMIPSNGSFKDVITEGDGRTRY | 100.0 | 27 | 2.17
5 | GM-ALS_P178S_D357N: Glycine Max ALS1 with P→S at position 178 and D→N at position 357 (protein, ALS1 variant P178S D357N) MAATASRTTRFSSSSSHPTFPKRITRSTLPLSHQTLTKPNHALKIKCSISKPPTAAPFTKEAPTTEPFVSRFASGEPRKGADILVEALERQGVTTVFAYPGGASMEIHQALTRSAAIRNVLPRHEQGGVFAAEGYARSSGLPGVCIATSGPGATNLVSGLADALMDSVPVVAITGQVSRRMIGTDAFQETPIVEVSRSITKHNYLILDVDDIPRVVAEAFFVATSGRPGPVLIDIPKDVQQQLAVPNWDEPVNLPGYLARLPRPPAEAQLEHIVRLIMEAQKPVLYVGGGSLNSSAELRRFVELTGIPVASTLMGLGTFPIGDEYSLQMLGMHGTVYANYAVDNSDLLLAFGVRFDNRVTGKLEAFASRAKIVHIDIDSAEIGKNKQAHVSVCADLKLALKGINMILEEKGVEGKFDLGGWREEINVQKHKFPLGYKTFQDAISPQHAIEVLDELTNGDAIVSTGVGQHQMWAAQFYKYKRPRQWLTSGGLGAMGFGLPAAIGAAVANPGAVVVDIDGDGSFIMNVQELATIRVENLPVKILLLNNQHLGMVVQWEDRFYKSNRAHTYLGDPSSESEIFPNMLKFADACGIPAARVTKKEELRAAIQRMLDTPGPYLLDVIVPHQEHVLPMIPSNGSFKDVITEGDGRTRY | 49.0 | 4 | 1.82
6 | GM-ALS_P178S_F559D: Glycine Max ALS1 with P→S at position 178 and F→D at position 559 (protein, ALS1 variant P178S F559D) MAATASRTTRFSSSSSHPTFPKRITRSTLPLSHQTLTKPNHALKIKCSISKPPTAAPFTKEAPTTEPFVSRFASGEPRKGADILVEALERQGVTTVFAYPGGASMEIHQALTRSAAIRNVLPRHEQGGVFAAEGYARSSGLPGVCIATSGPGATNLVSGLADALMDSVPVVAITGQVSRRMIGTDAFQETPIVEVSRSITKHNYLILDVDDIPRVVAEAFFVATSGRPGPVLIDIPKDVQQQLAVPNWDEPVNLPGYLARLPRPPAEAQLEHIVRLIMEAQKPVLYVGGGSLNSSAELRRFVELTGIPVASTLMGLGTFPIGDEYSLQMLGMHGTVYANYAVDNSDLLLAFGVRFDDRVTGKLEAFASRAKIVHIDIDSAEIGKNKQAHVSVCADLKLALKGINMILEEKGVEGKFDLGGWREEINVQKHKFPLGYKTFQDAISPQHAIEVLDELTNGDAIVSTGVGQHQMWAAQFYKYKRPRQWLTSGGLGAMGFGLPAAIGAAVANPGAVVVDIDGDGSFIMNVQELATIRVENLPVKILLLNNQHLGMVVQWEDRDYKSNRAHTYLGDPSSESEIFPNMLKFADACGIPAARVTKKEELRAAIQRMLDTPGPYLLDVIVPHQEHVLPMIPSNGSFKDVITEGDGRTRY | 89.0 | 40 | 0.833
7 | GM-ALS_A186D: Glycine Max ALS1 variant with a A→D mutation at position 186 (protein, ALS1 variant A186D) MAATASRTTRFSSSSSHPTFPKRITRSTLPLSHQTLTKPNHALKIKCSISKPPTAAPFTKEAPTTEPFVSRFASGEPRKGADILVEALERQGVTTVFAYPGGASMEIHQALTRSAAIRNVLPRHEQGGVFAAEGYARSSGLPGVCIATSGPGATNLVSGLADALMDSVPVVAITGQVPRRMIGTDDFQETPIVEVSRSITKHNYLILDVDDIPRVVAEAFFVATSGRPGPVLIDIPKDVQQQLAVPNWDEPVNLPGYLARLPRPPAEAQLEHIVRLIMEAQKPVLYVGGGSLNSSAELRRFVELTGIPVASTLMGLGTFPIGDEYSLQMLGMHGTVYANYAVDNSDLLLAFGVRFDDRVTGKLEAFASRAKIVHIDIDSAEIGKNKQAHVSVCADLKLALKGINMILEEKGVEGKFDLGGWREEINVQKHKFPLGYKTFQDAISPQHAIEVLDELTNGDAIVSTGVGQHQMWAAQFYKYKRPRQWLTSGGLGAMGFGLPAAIGAAVANPGAVVVDIDGDGSFIMNVQELATIRVENLPVKILLLNNQHLGMVVQWEDRFYKSNRAHTYLGDPSSESEIFPNMLKFADACGIPAARVTKKEELRAAIQRMLDTPGPYLLDVIVPHQEHVLPMIPSNGSFKDVITEGDGRTRY | 21.7 | 35 | 0.15
